In article PMC3376134, “Regulation of the Escherichia coli HipBA Toxin-Antitoxin System by Proteolysis” (PLoS ONE, 2012):
Residue numbers refer to the chain shown, from its start. Names may count otherwise.

T1: HipA;HipB (Escherichia coli;Escherichia coli, UniProt P23874;P23873 1-440;1-88, |)
T1 sequence 1: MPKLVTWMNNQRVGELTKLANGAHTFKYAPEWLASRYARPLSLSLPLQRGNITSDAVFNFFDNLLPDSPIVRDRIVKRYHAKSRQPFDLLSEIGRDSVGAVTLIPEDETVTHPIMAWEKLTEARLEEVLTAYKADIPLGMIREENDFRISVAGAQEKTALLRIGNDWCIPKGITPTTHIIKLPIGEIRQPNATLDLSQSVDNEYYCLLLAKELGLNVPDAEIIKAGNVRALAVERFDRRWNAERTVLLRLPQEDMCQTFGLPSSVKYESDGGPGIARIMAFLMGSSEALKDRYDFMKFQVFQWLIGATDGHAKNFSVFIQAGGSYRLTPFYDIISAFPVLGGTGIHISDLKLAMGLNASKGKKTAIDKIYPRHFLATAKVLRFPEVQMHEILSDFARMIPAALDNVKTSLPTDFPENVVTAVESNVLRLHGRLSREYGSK
T1 sequence 2: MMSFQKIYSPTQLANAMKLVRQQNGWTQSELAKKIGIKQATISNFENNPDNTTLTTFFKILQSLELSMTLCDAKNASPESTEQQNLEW

T2: HipB (Escherichia coli, UniProt P23873 1-88)
T2 sequence: T1 sequence 2

T3: HipB72 (Escherichia coli, UniProt P23873 1-72, del73-88)
T3 sequence: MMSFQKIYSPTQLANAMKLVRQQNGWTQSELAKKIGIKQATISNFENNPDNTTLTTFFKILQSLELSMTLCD

T4: HipB(W88A) (Escherichia coli, UniProt P23873 1-88, W88A)
T4 sequence: T1 sequence 2 with W88A

B1: HipA toxin (wild type HipA protein) (enzyme, E. coli, UniProt P23874 1-440, looked up)
chain: T1 sequence 1
B2: HipB antitoxin, wild type (natural protein, E. coli, UniProt P23873 1-88, looked up)
chain: T1 sequence 2
notes: HipB, antitoxin and repressor of the hipBA operon of Escherichia coli, 88 residues; also called HipB WT; pET15b-HipB; source: E. coli BL21(DE3)pLysS, purified (Ni-NTA)
B3: HipB(W88A) (natural protein, E. coli, UniProt P23873 1-88, looked up)
chain: T1 sequence 2 with W88A
notes: HipB of Escherichia coli with the C-terminal tryptophan 88 changed to alanine, made by site-directed mutagenesis in pET15b-hipB; Strain KLE911; also called HipB(W88A) protein; pET15b-hipB w88a; source: E. coli BL21(DE3)pLysS, purified (Ni-NTA)
B4: HipB72 (C-terminal truncation of HipB lacking the last 16 residues) (domain or fragment, E. coli, UniProt P23873 1-72, looked up)
chain: T3 sequence
notes: Strain KLE912; also called HipB72 C-terminal truncation protein; pET15b-hipB72; source: E. coli BL21(DE3)pLysS, purified (Ni-NTA)
B5: hipBA O1O2 operator (dsDNA)
DNA 1: TTATCCGCTTAAGGGGATATTATAAGTTTTATCCTTTAGTGAGGATAA
DNA 2: TTATCCTCACTAAAGGATAAAACTTATAATATCCCCTTAAGCGGATAA

What was measured:
[1] = target: B2; test: cell-based or functional assay
[2] = target: B1; test: fluorescence polarisation; HipA titrated into 50 nM HipB (or HipB(W88A), HipB72) pre-incubated 2 min with 1 nM 5'-6-carboxyfluorescein-labelled hipBA O1O2 DNA; 20 mM Tris-HCl pH 7.5, 100 mM NaCl, 5% glycerol; 10 °C; the affinity is formally between HipA and HipB bound to the DNA; details: both partners purified
[3] = target: B1; test: as above; details: both partners purified; remark: listed apart in the source
HipA;HipB = target: T1, HipA;HipB; test: fluorescence polarization; HipA titrated into DNA saturated with 50 nM HipB; Kd is formally HipA for DNA-bound HipB; 20 mM Tris-HCl pH 7.5, 100 mM NaCl, 5% glycerol, 10 C, 1 nM labeled DNA; details: protein: recombinant;recombinant; tags: His6 (Ni-NTA purified, pET28a);His6 (Ni-NTA purified, pET15b); chain copies: 2;4; label: 5'-6-carboxyfluorescein on top strand; blunt
HipB = target: T2, HipB; test: fluorescence polarization; 1 nM DNA; 20 mM Tris-HCl pH 7.5, 100 mM NaCl, 5% glycerol, 10 C, 1 nM labeled DNA; details: protein: recombinant; tags: His6 (Ni-NTA purified, pET15b); chain copies: 2; label: 5'-6-carboxyfluorescein on top strand; blunt
HipB72 = target: T3, HipB72; test: as above; details: protein: recombinant; tags: His6 (Ni-NTA purified); chain copies: 2; label: 5'-6-carboxyfluorescein on top strand; blunt
HipB(W88A) = target: T4, HipB(W88A); test: as above; details: protein: recombinant; tags: His6 (Ni-NTA purified); chain copies: 2; label: 5'-6-carboxyfluorescein on top strand; blunt

Question: B1 was tested. Which “half-life of His6-HipB (0.48 µM) in the in vitro degradation assay with His6-Lon (0.6 µM) when purified His6-HipA (0.48 µM) is added, against lysozyme as control protein” value [1] did it give?
Answer: > 3.33 h

Question: B2 was tested. Which Kd [2] did it give?
Answer: 1000 ± 600 nM

Question: B3 was tested. Which Kd [2] did it give?
Answer: 1200 ± 300 nM

Question: Does B4 bind [3]?
Answer: binds

Question: For B5, which Kd (HipA;HipB) is on record?
Answer: 1000 ± 600 nM

Question: What about the Kd (HipB) of the same binder?
Answer: 0.6 ± 0.1 nM

Question: What about the Kd (HipB72) of the same binder?
Answer: 0.4 ± 0.1 nM

Question: What about the Kd (HipB(W88A)) of the same binder?
Answer: 0.9 ± 0.4 nM
